Experimental data taken from PMC2958096.
Read-outs that look alike come from different tables or passages of the source.

Legend:
SUD-MC [1] = molecular target: T1, SUD-MC (SARS-CoV, UniProt P0C6U8 1345-1538); experiment: NMR chemical shift perturbation
SUD-M [2] = molecular target: T2, SUD-M (SARS-CoV, UniProt P0C6U8 1345-1469); experiment: NMR chemical shift perturbation
SUD-MC [3] = molecular target: T1, SUD-MC; experiment: NMR chemical shift perturbation; remark: listed apart in the source
SUD-C [4] = molecular target: T3, SUD-C (SARS-CoV, UniProt P0C6U8 1473-1538); experiment: NMR chemical shift perturbation
SUD-M [5] = molecular target: T2, SUD-M
SUD-MC [6] = molecular target: T1, SUD-MC; experiment: NMR chemical shift perturbation; remark: listed apart in the source
SUD-C [7] = molecular target: T3, SUD-C; experiment: EMSA
SUD-MC [8] = molecular target: T1, SUD-MC; experiment: EMSA
SUD-M [9] = molecular target: T2, SUD-M; experiment: EMSA
SUD-M [10] = molecular target: T2, SUD-M; experiment: EMSA; remark: listed apart in the source
SUD-C [11] = molecular target: T3, SUD-C; experiment: NMR chemical shift perturbation; remark: listed apart in the source
SUD-M [12] = molecular target: T2, SUD-M; experiment: EMSA; remark: listed apart in the source
SUD-MC [13] = molecular target: T1, SUD-MC; experiment: EMSA; remark: listed apart in the source
SUD-MC [14] = molecular target: T1, SUD-MC; experiment: EMSA; remark: listed apart in the source

B1: (GGA)4 (ssRNA)
RNA: GGAGGAGGAGGA
B1: binds (SUD-MC [1]); binds (SUD-M [2]).

B2: A10 (ssRNA)
RNA: AAAAAAAAAA
B2: binds (SUD-MC [3]); binds (SUD-C [4]).

B3: TRS(-) (ssRNA)
RNA: GUUCGUUUAG
B3: no binding (SUD-M [5]).

B4: TRS(+) (ssRNA)
RNA: CUAAACGAAC
B4: no binding (SUD-M [5]); binds (SUD-MC [6]).

B5: (ACUG)5 (ssRNA)
RNA: ACUGACUGACUGACUGACUG
B5: no binding (SUD-C [7]); no binding (SUD-MC [8]); binds (SUD-M [9]).

B6: GGGAGGGA (ssRNA)
RNA: GGGAGGGA
B6: binds (SUD-M [10]).

B7: G10 (ssRNA)
RNA: GGGGGGGGGG
B7: binds (SUD-C [11]).

B8: GGGAGGGAGG (ssRNA)
RNA: GGGAGGGAGG
B8: binds (SUD-M [12]); binds (SUD-MC [13]).

B9: (GGGA)5 (ssRNA)
RNA: GGGAGGGAGGGAGGGAGGGA
B9: binds (SUD-M [12]); binds (SUD-MC [14]); no binding (SUD-C [7]).
